Consider four molecules from US20240174727A1, “LONG-ACTING NATRIURETIC PEPTIDES AND USES THEREOF” (Eli Lilly and Company, priority 2022, published 2024).

Where two headings read alike, the source gives them in different places. Numbered stars: 1 amine (or outer) side, 2 acyl side, 3 side chain; on linkers, the order of the positions; unused ones are H or OH. Bridge positions count the residues as written; N and C are the ends. Square brackets hold non-standard residues; d marks the D form. * marks the point of attachment. thioacetal = thioacetal linkage between two cysteines (intrachain bond at the bracketed Cys); PEG24 = NCCOCCOCCOCCOCCOCCOCCOCCOCCOCCOCCOCCOCCOCCOCCOCCOCCOCCOCCOCCOCCOCCOCCOCCOCCC(=O)O; C20 diacid = O=C(O)CCCCCCCCCCCCCCCCCCC(=O)*; γGlu = O=C(O)[C@H](CCC(=O)[*:2])N[*:1]; Dap = NC[C@H](N)C(=O)O; CH2 = C([*:1])[*:2]

Assay [1] concerns the target T1, rat NPRA (Rattus norvegicus, UniProt P18910).
T1 construct: Full-Length cDNA Cloning and Generation of Cell Lines Overexpressing Natriuretic Peptide Receptors (NPRs); expressed in transfected cells; host or cells: Jump-in T-Rex HEK293 cells, pJTI R4 CMV-TO MCS pA vector, tetracycline induction
T1 sequence (P18910 29-1057): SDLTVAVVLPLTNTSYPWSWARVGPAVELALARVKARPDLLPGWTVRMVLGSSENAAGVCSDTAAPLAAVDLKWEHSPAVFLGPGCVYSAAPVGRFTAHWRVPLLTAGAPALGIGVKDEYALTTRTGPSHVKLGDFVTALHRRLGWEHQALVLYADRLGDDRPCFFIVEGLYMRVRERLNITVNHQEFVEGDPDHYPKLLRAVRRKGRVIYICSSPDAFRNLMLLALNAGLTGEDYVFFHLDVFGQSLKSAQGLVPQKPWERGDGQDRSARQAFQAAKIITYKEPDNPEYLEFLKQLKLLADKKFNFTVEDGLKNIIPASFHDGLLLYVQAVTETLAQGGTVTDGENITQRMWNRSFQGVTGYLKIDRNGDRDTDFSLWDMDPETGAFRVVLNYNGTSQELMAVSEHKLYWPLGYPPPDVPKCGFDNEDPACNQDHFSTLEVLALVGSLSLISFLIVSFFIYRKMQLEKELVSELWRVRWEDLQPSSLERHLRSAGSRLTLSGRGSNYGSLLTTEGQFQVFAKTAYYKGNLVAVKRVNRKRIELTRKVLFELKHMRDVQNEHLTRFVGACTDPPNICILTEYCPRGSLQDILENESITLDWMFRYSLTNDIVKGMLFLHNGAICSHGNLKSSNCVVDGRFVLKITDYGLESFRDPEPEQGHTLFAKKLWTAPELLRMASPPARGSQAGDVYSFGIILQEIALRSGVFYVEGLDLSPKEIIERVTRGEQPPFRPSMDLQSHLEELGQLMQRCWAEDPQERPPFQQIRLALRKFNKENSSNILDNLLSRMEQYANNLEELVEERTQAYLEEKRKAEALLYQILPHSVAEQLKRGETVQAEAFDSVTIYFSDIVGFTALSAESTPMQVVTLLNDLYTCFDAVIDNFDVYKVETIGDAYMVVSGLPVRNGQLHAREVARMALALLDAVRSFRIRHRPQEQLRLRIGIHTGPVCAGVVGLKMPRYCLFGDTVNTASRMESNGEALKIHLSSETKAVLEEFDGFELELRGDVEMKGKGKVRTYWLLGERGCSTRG
The assay can be described thus: Rat NPRA cGMP activity assay (HTRF) in HEK293 cells overexpressing NPRA. The settings on record: assay buffer with 0.1% casein. It is filed as cell-based. As for the experimental part: All sequences were verified by full-length sequencing performed by ACGT DNA Sequencing Services (Wheeling, IL). The target cDNA was cloned into pJTI R4 CMV-TO MCS pA vector and then co-transfected with pJT1R4 Int vector into Jump-in™ T-Rex™ HEK293 cells for mammalian inducible expression using Jump-in™ T-Rex™ HEK293 kit and Lipofectamine LTX and Plus Reagent following manufacturer's protocols, as briefly described below.
Jump-in™ T-Rex™ HEK293 cells were plated in a BioCOAT® poly-D-lysine coated 6-well plate (Becton Dickinson, cat no. 354413) at 1 million cells/well in 2 mL culture medium and incubated for 18 h at 37° C. and 5% CO2 to 50-70% confluence. A cDNA mix was made in a 50 mL tube by adding 1.5 μg target cDNA, 1.5 μg pJT1R4 Int vector, 3 μL Plus Reagent, and 300 μL Opti-MEM I sequentially into the tube. A reagent mix was made in a separate 50 mL tube by adding 7.5 μL Lipofectamine LTX into 300 μL Opti-MEM I. The mixtures were incubated for 5 min at room temperature. The cDNA mix was then transferred into the reagent mix, mixed well, and incubated for additional 30 min at room temperature. A 500 μL of cDNA/Lipofectamine complex was then transferred to the wells of the cell plate in which the culture medium was changed to 2 mL of transfection medium containing DMEM with 4.5 g/L D-glucose supplemented with 10% FBS-HI and 20 mM HEPES. Transfected cells were cultured for 48 h in an incubator at 37° C. and 5% CO2. A subclone or pool from each overexpressing cell line was maintained in culture medium with the addition of 2 mg/mL G418 sulfate for the clone selection based on its built-in resistance to G418 sulfate for at least 3 weeks with medium changed every 2-3 days.
NPRs were overexpressed in T-Rex™ HEK293 cells following the induction with 300 ng/mL tetracycline in culture medium for 48 h. Induced cell lines in an exponential growth phase were treated with 0.05% trypsin-EDTA for a few seconds at room temperature, harvested in cell medium containing FBS to neutralize the trypsin, counted, and cryopreserved at the density of 2 million cells/mL in cell preservation solution containing FBS-HI with 5% DMSO. Cryopreserved cells were stored at −80° C. for a few days prior to transferring to a liquid nitrogen tank. Induced cell lines were then used for suspension assays to measure the activity of polypeptides to stimulate cGMP production in cGMP assays or for the preparation of cell membranes to measure the binding activity of polypeptides in competitive radioligand binding assays, as described below.
Test polypeptides were added starting at 10 μM concentration and at 10-fold decreasing concentrations to obtain 8-point concentration-response curves (i.e., 10 μM to 1 pM). The quantity of cGMP generated was detected using HTRF® technology and normalized to maximum amount produced by 100 nM amidated rat ANP and the minimum amount produced by assay buffer. Detailed steps are outlined below.
Stock solutions of test polypeptides (2 mM) dissolved in DMSO were first diluted 100-fold in assay buffer containing HBSS with Ca^2+ and Mg^2+, 5 mM HEPES, 0.5 mM IBMX, and 0.1% BSA or 0.1% casein (pH 7.4). The polypeptides were further serially diluted in 1:10 dilution steps in assay buffer containing 0.1% BSA or 0.1% casein to generate 8-point 2× working stock solutions ranging from 20 μM to […].
A 10 μL cell suspension containing 4000 cells was plated in Costar® half-area white opaque 96-well plates (Corning, cat no. 3693). Then 10 μL of assay buffer (basal activity), 200 nM of amidated rat ANP (maximum activity) or 2× working stock solutions of test polypeptides were transferred into the plate. Final concentration of DMSO in each well was 0.5%. The plate was shaken for 15 sec and then incubated for 40 min at room temperature.
The cGMP generated was measured using cGMP kit following the manufacturer's directions, as described below.
Background: Time-resolved FRET reads energy transfer from a long-lived donor to a nearby acceptor.

Another assay has as its target T2, human NPRA (human, UniProt P16066 33-1061).
T2 sequence (looked up): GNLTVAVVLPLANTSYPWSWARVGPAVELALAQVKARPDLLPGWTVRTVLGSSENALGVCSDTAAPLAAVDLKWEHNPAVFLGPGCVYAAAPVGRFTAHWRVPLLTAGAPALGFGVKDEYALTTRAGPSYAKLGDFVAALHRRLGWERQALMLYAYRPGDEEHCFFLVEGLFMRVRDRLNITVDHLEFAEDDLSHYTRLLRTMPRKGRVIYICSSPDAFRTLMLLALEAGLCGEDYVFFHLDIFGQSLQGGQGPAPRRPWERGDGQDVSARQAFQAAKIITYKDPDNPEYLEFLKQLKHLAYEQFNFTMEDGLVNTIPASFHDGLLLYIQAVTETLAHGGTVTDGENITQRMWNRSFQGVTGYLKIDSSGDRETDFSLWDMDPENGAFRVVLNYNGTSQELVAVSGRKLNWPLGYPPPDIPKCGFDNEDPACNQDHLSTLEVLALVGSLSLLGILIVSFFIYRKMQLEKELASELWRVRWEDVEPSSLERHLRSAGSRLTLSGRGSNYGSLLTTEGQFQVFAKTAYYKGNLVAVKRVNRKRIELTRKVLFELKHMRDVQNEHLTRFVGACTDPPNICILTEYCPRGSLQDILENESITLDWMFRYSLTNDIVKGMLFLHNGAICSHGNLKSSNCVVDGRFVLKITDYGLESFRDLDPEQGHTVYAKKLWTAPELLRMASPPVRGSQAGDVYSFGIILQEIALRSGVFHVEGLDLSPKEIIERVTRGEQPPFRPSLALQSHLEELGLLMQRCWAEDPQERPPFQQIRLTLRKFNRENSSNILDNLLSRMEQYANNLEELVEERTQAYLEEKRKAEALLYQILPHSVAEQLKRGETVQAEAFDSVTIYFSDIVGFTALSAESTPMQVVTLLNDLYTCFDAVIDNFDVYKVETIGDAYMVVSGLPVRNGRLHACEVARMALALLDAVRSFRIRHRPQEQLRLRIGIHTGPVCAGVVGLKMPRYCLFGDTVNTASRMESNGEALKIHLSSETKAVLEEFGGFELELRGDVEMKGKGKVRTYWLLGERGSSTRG
Put plainly: cell-based or functional assay.

For assay [2], the target named is T3, rat NPRA (rat, UniProt P18910 29-1057).
T3 sequence (looked up): T1 sequence (P18910 29-1057)
The assay can be described thus: cell-based or functional assay.

Regarding “{C20 diacid-γGlu}-EKEKEKG[PEG24]EKPRSSCFGKGIDRIGHQSGLGCPSFRHSGSPSSGAPPPSG-NH2 (linker 15-31 via CH2) [Example 133, HOOC-(CH2)18-CO-(γGlu)-EKEKEKG-PEG24-EKPRSS[CFGKGIDRIGHQSGLGCJPSFRHSGSPSSGAPPPSG-NH2]”, on rat NPRA [1] (read-out: cGMP Assay (EC50, pM) w/Casein rNPRA), the EC50 was 581000 pM.

At rat NPRA [1] (cGMP Assay (EC50, pM) w/Casein rNPRA), `CC[C@H](C)[C@@H]1NC(=O)[C@H](CCCNC(=N)N)NC(=O)[C@H](CC(=O)O)NC(=O)[C@H]([C@@H](C)CC)NC(=O)[C@H](CCCNC(=N)N)NC(=O)[C@H](CCCCN)NC(=O)CNC(=O)[C@H](Cc2ccccc2)NC(=O)[C@@H](NC(=O)[C@H](CO)NC(=O)[C@H](CO)NC(=O)[C@H](CCCNC(=N)N)NC(=O)[C@@H]2CCCN2C(=O)[C@H](CCCCN)NC(=O)[C@H](CCC(=O)O)NC(=O)COCCOCCNC(=O)COCCOCCNC(=O)COCCOCCNC(=O)COCCOCCNC(=O)COCCOCCNC(=O)COCCOCCNC(=O)CNC(=O)[C@H](CCCCN)NC(=O)[C@H](CCC(=O)O)NC(=O)[C@H](CCCCN)NC(=O)[C@H](CCC(=O)O)NC(=O)[C@H](CCCCN)NC(=O)[C@H](CCC(=O)O)NC(=O)CC[C@H](NC(=O)CCCCCCCCCCCCCCCCCCC(=O)O)C(=O)O)CSCSC[C@@H](C(=O)N2CCC[C@H]2C(=O)N[C@@H](CO)C(=O)N[C@@H](Cc2ccccc2)C(=O)N[C@@H](CCCNC(=N)N)C(=O)N[C@@H](Cc2c[nH]cn2)C(=O)NCC(=O)N[C@@H](CO)C(=O)N2CCC[C@H]2C(=O)N[C@@H](CO)C(=O)N[C@@H](CO)C(=O)NCC(=O)N[C@@H](C)C(=O)N2CCC[C@H]2C(=O)N2CCC[C@H]2C(=O)N2CCC[C@H]2C(=O)N[C@@H](CO)C(N)=O)NC(=O)CNC(=O)[C@H](CC(C)C)NC(=O)CNC(=O)[C@H](CO)NC(=O)[C@H](Cc2ccc(O)cc2)NC(=O)[C@H](Cc2c[nH]cn2)NC(=O)CNC1=O` [Example 122, HOOC-(CH2)18-CO-(γGlu)-EKEKEKG-(AEEA)6-EKPRSS[CFGKRIDRIGHYSGLGCJPSFRHGSPSSGAPPPS-NH2] had an EC50 of 3770 pM.

As for {C20 diacid-γGlu}-EKEKEKGEKPRSSCFGKRIDRIGRYSGLGCPSFRHGSPSSGAPPPS-NH2 (bridge 14-30 via thioacetal) [HOOC-(CH2)18-CO-(γGlu)-EKEKEKGEKPRSS[CFGKRIDRIGRYSGLGC]PSFRHGSPSSGAPPPS-NH2], in the assay with human NPRA, the “cGMP Assay (EC50, pM) w/BSA, hNPRA” value came to 11700 pM and the “cGMP Assay (EC50, pM) w/Casein, hNPRA” value was 692 pM. In the assay with rat NPRA [2], the “cGMP Assay (EC50, pM) w/BSA, rNPRA” value came to 4.18e+06 pM and the “cGMP Assay (EC50, pM) w/Casein, rNPRA” value is 41100 pM.

As for {C20 diacid-γGlu}-EKEKEKGEKPRSSCFGG[Dap]IDRIGHQSGLGCPSFRHGSPSSGAPPPS-NH2 (bridge 14-30 via thioacetal) [HOOC-(CH2)18-CO-(γGlu)-EKEKEKGEKPRSS[CFGG-Dap-IDRIGHQSGLGC]PSFRHGSPSSGAPPPS-NH2], in the assay with human NPRA, the “cGMP Assay (EC50, pM) w/BSA, hNPRA” value was found to be 2.87e+06 pM and the “cGMP Assay (EC50, pM) w/Casein, hNPRA” value was found to be 19700 pM. In addition, in the assay with rat NPRA [2], the “cGMP Assay (EC50, pM) w/BSA, rNPRA” value was determined as 1.73e+06 pM and the “cGMP Assay (EC50, pM) w/Casein, rNPRA” value is 200000 pM.
